The data set deals with the molecule itself. Nature of the data set: thioflavin T fluorescence; 20 μM protein pre-incubated at 70 °C for 10 min, stoichiometric ThT, 20 mM sodium phosphate pH 7.2, 100 mM NaCl; self-association into fibrillar aggregates.

Consider one protein from publication PMC9603430, “Folding Mechanism and Aggregation Propensity of the KH0 Domain of FMRP and Its R138Q Pathological Variant” (International Journal of Molecular Sciences, 2022).

B1: KH0 domain of FMRP, R138Q pathological variant, res 122-205 (domain or fragment)
chain: not shown
notes: KH0 domain of human FMRP, residues 122-205, Uniprot Q06787, with the missense mutation R138Q found in FXS patients; Made by site-directed mutagenesis of the KH0 construct; the histidine tag was removed by thrombin for the fibrillation/aggregation experiments; also called KH0-R138Q; variant protein; source: E. coli BL-21 (DE3), purified (HisTrap FF, thrombin cleavage, Superdex75 size exclusion)
Consider B1, for which the binding result is listed as “binds”.
